According to patent publication US9127075B2, “Analgesic active peptide VGG, preparation and use thereof” (priority 2010, dated 2015):
Where two headings read alike, the source gives them in different places.

How the values were obtained:
[1] = system: mouse hot plate analgesic method; assay: In vivo assay of analgesic activity, hot plate method of mice; conditions: 0.1 mg/kg i.v. via tail, hot plate 55±0.5° C.; for B, average response time after medicine taken: before 21 ± 4.2 s
Method: 2. In Vivo Assay of Analgesic Activity—Hot Plate Method of Mice
This example is used to verify the in vivo biological activity for the analgesic activity of analgesic active peptide VGG with […].
The mouse hot plate analgesic method: the female mice with weight from 18 g to 22 g were put a hot plate at temperature of 55±0.5° C. which was maintained by a water bath. The licking times were recorded plate as the pain threshold of mouse after it was put onto the hot plate. The pain threshold between 10-30 seconds was considered to be qualified for experiments. The qualified mice were divided into groups by random. The normal pain reaction time of mouse was determined for two times. The mean of the pain threshold (B) was calculated before medicine was taken. The analgesic active peptide VGG (dosage of 0.1 mg/kg (test sample/mouse weight) was intravenously injected via tail. The normal saline was used as control group. The pain reaction time was recorded as one at 15, 30, 45, 60 […] after the test sample was taken. The mouse was immediately taken out if it had no pain response on the hot plate in 60 seconds. The 60 seconds as a calculation unit, the pain threshold increasing percentage was calculated by the following formula: A=(B−C)/C×100% • A—Pain threshold increasing percentage • B—Average response time after medicine taken • C—Average response time before medicine taken

[2] = system: mouse twisting model induced by acetic acid; format: in vivo
Method: 1. In Vivo Analgesic Activity in Mouse Twisting Model Induced by Acetic Acid.
In mouse twisting model: The glacial acetic acid as the chemical irritant is injected into the mouse stomach, which causes a deep and large area and lasting pain stimulus for animal which has a “twist body” reaction, such as abdominal cove, torso and legs spread out, hip high up.
Equal numbers of male and female mice, whose weight were about […], were divided into groups by random. Each group consisted of eight mice. 0.2 ml/20 g of 0.6% (v/v) of acetic acid, which caused visceral pain, was intraperitoneally injected after the test sample was injected into the stomach of mouse for 20 minutes. The writhing times of the mouse were recorded for 10 min after the acetic acid was injected for 5 min. […] The inhibition of writhing response inhibition for each test group was calculated by the following formula: […]

B1: analgesic active peptide VGG (protein, listed as Mesobuthus martensi)
chain: VKDGYIADDRNCPYFCGRNAYCDGECKKNRAESGYCQWASKYGNACWCYKLPDDARIMKPGRCNGG
A, pain threshold increasing percentage ([1]; 10 min): 128%
B, average response time after medicine taken ([1]; 10 min): 48 ± 3.2 s
A, pain threshold increasing percentage ([1]; 15 min): 138%
B, average response time after medicine taken ([1]; 15 min): 50 ± 5.1 s
A, pain threshold increasing percentage ([1]; 30 min): 114%
B, average response time after medicine taken ([1]; 30 min): 45 ± 3.7 s
A, pain threshold increasing percentage ([1]; 45 min): 100%
B, average response time after medicine taken ([1]; 45 min): 42 ± 6.9 s
A, pain threshold increasing percentage ([1]; 60 min): 90%
B, average response time after medicine taken ([1]; 60 min): 40 ± 3.5 s
inhibition of the animal writhing ([2]; purest analgesic active peptide VGG, dosage 0.1 mg/kg): ≥ 60%
inhibition of the animal writhing ([2]; various purity, isolated from scorpion venom or scorpion tails or scorpion body, dosage 0.1 mg/kg-1.0 mg/kg): ≥ 50%
